The record followed here is the supplement of paper PMC9112550, “Optimization of the antimicrobial peptide Bac7 by deep mutational scanning” (BMC Biology, 2022).

The test system of the series is Escherichia coli TOP10. The series can be described thus: shrunken log2 fold change of peptide-encoding DNA abundance (4.5 h post-induction vs induction); higher = less antimicrobial activity (less host growth inhibition). Conditions: time post-induction: 4.5 h; library: site-saturation at positions 5, 18, 19, 20.
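Note: peptides expressed intracellularly from a pBAD plasmid library in pooled LB shake-flask culture, induced with 0.3% L-arabinose, DNA abundance read by NGS, three biological replicates, DESeq2 with apeglm shrinkage.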

As for RRIRIRPPRLPRPRPRPSNVPRP, the “shrunken log2 fold change” value was -0.683.
The same measure for RRIRIRPPRLPRPRPRPYFQPRP: -0.511.
The same measure for RRIRTRPPRLPRPRPRPEGHPRP: 0.0274; for RRIRNRPPRLPRPRPRPNWDPRP: -0.163; for RRIRMRPPRLPRPRPRPQQRPRP: 0.586.
The same measure for RRIRVRPPRLPRPRPRPVKWPRP: -0.0595; for RRIRGRPPRLPRPRPRPPDAPRP: 1.45.
Take RRIRTRPPRLPRPRPRPASRPRP: the “shrunken log2 fold change” value is 0.279.
The same measure for RRIRPRPPRLPRPRPRPVYIPRP: -0.684.
For RRIRFRPPRLPRPRPRPVWPPRP, the “shrunken log2 fold change” value turned out to be 0.263.
On to RRIRPRPPRLPRPRPRPRNLPRP, for which the “shrunken log2 fold change” value turned out to be 0.067.
The same measure for RRIRPRPPRLPRPRPRPHCQPRP: -0.0117; for RRIRCRPPRLPRPRPRPALMPRP: -0.011.
To RRIRSRPPRLPRPRPRPDPNPRP belongs -0.000549; to RRIRDRPPRLPRPRPRPCKTPRP, -0.0377; to RRIRDRPPRLPRPRPRPETIPRP, 0.17.
The same measure for RRIRQRPPRLPRPRPRPLVRPRP: 0.0989; for RRIRFRPPRLPRPRPRPFEEPRP: -0.119; for RRIRARPPRLPRPRPRPQWYPRP: -0.523.
With RRIRDRPPRLPRPRPRPDNFPRP, the “shrunken log2 fold change” value is 0.0301.
The same measure for RRIRNRPPRLPRPRPRPEIHPRP: 0.116; for RRIRNRPPRLPRPRPRPNHLPRP: -0.317.
Turning to RRIRPRPPRLPRPRPRPGFIPRP, the “shrunken log2 fold change” value is -0.221.
To RRIRRRPPRLPRPRPRPRTIPRP belongs 0.134; to RRIRDRPPRLPRPRPRPDPQPRP, 0.209.
The same measure for RRIRWRPPRLPRPRPRPESAPRP: 1.15; for RRIRMRPPRLPRPRPRPLCMPRP: 0.0571; for RRIRHRPPRLPRPRPRPRWVPRP: 0.31.
The same measure for RRIRGRPPRLPRPRPRPSEEPRP: 0.503.
Regarding RRIRWRPPRLPRPRPRPPVKPRP, the “shrunken log2 fold change” value was determined as 0.644.
To RRIRERPPRLPRPRPRPKAKPRP belongs -0.0257; to RRIRIRPPRLPRPRPRPDKVPRP, -0.043; to RRIRLRPPRLPRPRPRPFMCPRP, -0.0925.
With RRIRMRPPRLPRPRPRPRYEPRP, the “shrunken log2 fold change” value is -0.0771.
Take RRIRRRPPRLPRPRPRPQAYPRP: the “shrunken log2 fold change” value is 0.0231.
The same measure for RRIRCRPPRLPRPRPRPWWIPRP: -0.655; for RRIRYRPPRLPRPRPRPQAKPRP: -0.0419.
To RRIRGRPPRLPRPRPRPGQPPRP belongs 0.462.
The same measure for RRIRPRPPRLPRPRPRPHMGPRP: -0.461; for RRIRKRPPRLPRPRPRPKPMPRP: 0.515; for RRIRPRPPRLPRPRPRPEYQPRP: 0.288.
Consider RRIRTRPPRLPRPRPRPNKSPRP, for which the “shrunken log2 fold change” value was -0.315.
To RRIRIRPPRLPRPRPRPSNKPRP belongs -1.01.
To RRIRTRPPRLPRPRPRPIDRPRP belongs -0.148; to RRIRGRPPRLPRPRPRPHWGPRP, 0.247; to RRIRDRPPRLPRPRPRPFHNPRP, -0.271.
To RRIRTRPPRLPRPRPRPAAAPRP belongs 0.618.
In the case of RRIRQRPPRLPRPRPRPRRDPRP, the “shrunken log2 fold change” value is 0.308.
The same measure for RRIRFRPPRLPRPRPRPCSQPRP: 0.0319; for RRIRQRPPRLPRPRPRPFAFPRP: 0.087.
The same measure for RRIRMRPPRLPRPRPRPPNWPRP: 1.03; for RRIRDRPPRLPRPRPRPFWHPRP: -0.166; for RRIRGRPPRLPRPRPRPSMNPRP: 0.156.
The same measure for RRIRVRPPRLPRPRPRPFPKPRP: -0.0266; for RRIRHRPPRLPRPRPRPGYHPRP: -0.126.
For the sequence RRIRVRPPRLPRPRPRPPYHPRP, the “shrunken log2 fold change” value is -0.284.
To RRIRKRPPRLPRPRPRPAYFPRP belongs -0.0128.
To RRIRHRPPRLPRPRPRPCSDPRP belongs -0.101.
The same measure for RRIRWRPPRLPRPRPRPDDSPRP: -0.183.
In the case of RRIRGRPPRLPRPRPRPIHVPRP, the “shrunken log2 fold change” value is -0.315.
To RRIRERPPRLPRPRPRPIRKPRP belongs -0.108; to RRIRWRPPRLPRPRPRPLYCPRP, -0.22.
In the case of RRIRGRPPRLPRPRPRPRSPPRP, the “shrunken log2 fold change” value is 0.449.
In the case of RRIRFRPPRLPRPRPRPTGAPRP, the “shrunken log2 fold change” value came to 0.257.
The same measure for RRIRCRPPRLPRPRPRPCCDPRP: -0.27; for RRIRYRPPRLPRPRPRPDYIPRP: -0.0327; for RRIRARPPRLPRPRPRPNLIPRP: 1.17.
For the sequence RRIRFRPPRLPRPRPRPPVQPRP, the “shrunken log2 fold change” value is 0.3.
The same measure for RRIRNRPPRLPRPRPRPENEPRP: -0.00386; for RRIRLRPPRLPRPRPRPSPDPRP: 0.164; for RRIRFRPPRLPRPRPRPTDYPRP: -0.578.
Regarding RRIRHRPPRLPRPRPRPAWLPRP, the “shrunken log2 fold change” value is 0.163.
The same measure for RRIRTRPPRLPRPRPRPIPQPRP: 0.284; for RRIRDRPPRLPRPRPRPFKKPRP: -0.145; for RRIRWRPPRLPRPRPRPECRPRP: 0.88.
For RRIRGRPPRLPRPRPRPKVQPRP, the “shrunken log2 fold change” value amounted to 1.06.
To RRIRCRPPRLPRPRPRPYDCPRP belongs -0.451; to RRIRGRPPRLPRPRPRPTANPRP, 1.09; to RRIRPRPPRLPRPRPRPGGCPRP, 0.295.
To RRIRNRPPRLPRPRPRPYGNPRP belongs -0.287.
To RRIRSRPPRLPRPRPRPMFDPRP belongs -0.0808; to RRIRPRPPRLPRPRPRPCIYPRP, -0.536.
Take RRIRQRPPRLPRPRPRPRMIPRP: the “shrunken log2 fold change” value was -0.227.
The same measure for RRIRCRPPRLPRPRPRPAQPPRP: 0.366.
To RRIRSRPPRLPRPRPRPAVLPRP belongs -0.355; to RRIRTRPPRLPRPRPRPQPMPRP, 0.267.
With RRIRPRPPRLPRPRPRPDTKPRP, the “shrunken log2 fold change” value is -0.0208.
The same measure for RRIRNRPPRLPRPRPRPEDLPRP: -0.00079.
As to RRIRDRPPRLPRPRPRPTWRPRP, the “shrunken log2 fold change” value is 0.756.
The same measure for RRIRWRPPRLPRPRPRPTKEPRP: 0.177; for RRIRFRPPRLPRPRPRPVIGPRP: -0.234.
The same measure for RRIRLRPPRLPRPRPRPMLVPRP: -0.225; for RRIRLRPPRLPRPRPRPFDEPRP: 0.0466.
To RRIRDRPPRLPRPRPRPVLTPRP belongs 0.31; to RRIRRRPPRLPRPRPRPCQSPRP, 0.0448.
For the sequence RRIRSRPPRLPRPRPRPAHSPRP, the “shrunken log2 fold change” value was -0.332.
Take RRIRRRPPRLPRPRPRPNCVPRP: the “shrunken log2 fold change” value is 0.245.
The same measure for RRIRRRPPRLPRPRPRPMTRPRP: 0.315; for RRIRFRPPRLPRPRPRPSPGPRP: -0.101; for RRIRERPPRLPRPRPRPDRFPRP: -0.01.
The same measure for RRIRIRPPRLPRPRPRPCKEPRP: 1.82.
The same measure for RRIRLRPPRLPRPRPRPTQPPRP: 0.634; for RRIRLRPPRLPRPRPRPVGGPRP: 0.516; for RRIRLRPPRLPRPRPRPLISPRP: -0.506.
As to RRIRARPPRLPRPRPRPHSHPRP, the “shrunken log2 fold change” value was 0.144.
The same measure for RRIRLRPPRLPRPRPRPTDHPRP: -0.323; for RRIRKRPPRLPRPRPRPVAMPRP: 1.67.
The same measure for RRIRHRPPRLPRPRPRPCPVPRP: -0.0628.
With RRIRKRPPRLPRPRPRPMGKPRP, the “shrunken log2 fold change” value was -0.0982.
To RRIRHRPPRLPRPRPRPVRLPRP belongs 0.0217; to RRIRFRPPRLPRPRPRPYTFPRP, -1.3; to RRIRFRPPRLPRPRPRPQQAPRP, 0.366.
With RRIRFRPPRLPRPRPRPILVPRP, the “shrunken log2 fold change” value was -0.152.
The same measure for RRIRDRPPRLPRPRPRPHWVPRP: 0.0635.
Regarding RRIRIRPPRLPRPRPRPTGCPRP, the “shrunken log2 fold change” value is -0.0215.
To RRIRCRPPRLPRPRPRPHDRPRP belongs -0.0905.
For the sequence RRIRLRPPRLPRPRPRPDDLPRP, the “shrunken log2 fold change” value is -0.0581.
The same measure for RRIRRRPPRLPRPRPRPTHFPRP: 1.01; for RRIRQRPPRLPRPRPRPTDLPRP: 0.0327; for RRIRRRPPRLPRPRPRPHKRPRP: 0.124.
Take RRIRERPPRLPRPRPRPPRGPRP: the “shrunken log2 fold change” value was determined as 0.519.
To RRIRARPPRLPRPRPRPTSQPRP belongs 0.211; to RRIRYRPPRLPRPRPRPPNAPRP, 0.153.
To RRIRNRPPRLPRPRPRPCRFPRP belongs -0.0153; to RRIRSRPPRLPRPRPRPWCHPRP, -0.4.
